From patent US20100086958A1, “NOVEL ENZYME” (priority 2008, published 2010)

Key:
Assay type in all cases: biochemical
[1] = Cyclohexanone monooxygenase (CHMO)/BspFDH2 coupled Baeyer-Villiger oxidation of cyclohexanone; conditions: coupled with CHMO
Procedure: By coupling the enzymatic action of BspFDH2 with that of cyclohexanone monooxygenase (CHMO), oxygen C—C bond insertion, a Baeyer-Viliger (B-V) oxidation (see FIG. 4b), converted (>99% conversion, complete within 4 hours) cyclohexanone (3) to caprolactone (4) with NADPH regeneration.
NADP+ (20 mM, 1 mL) and BspFDH2 (17 mg/mL, 500 μL) were then added and the reaction shaken for 30 minutes at room temperature. After 30 minutes, pre-dialysed CHMO (2 mg/mL, 300 μL) was then added and the reaction shaken at 37° C. The reaction was monitored by GC-MS (Rt˜3.1 minutes). After 4 hr, the reaction mixture was extracted by DCM (3×1 mL) and the combined organic phase was dried and the solvent removed to afford oxepan-2-one (4 above, >99% conversion based on GC chromatogram).

[2] = Cytochrome P450 BM3/BspFDH2 coupled oxidation of 1-propylbenzene with NADPH regeneration
Procedure: (Li, Q.-S. et al., FEBS Letters 508, 249-252 (2001)) In this oxygen C—H reaction (FIG. 4a), one oxygen atom from an atmospheric O2 molecule is reduced to water by NADPH leaving the other ready for delivery to substrate. All P450's are NADPH-dependent. NADP^+ thus formed is then regenerated to NADPH by the action of BspFDH2 using formate. The overall atomic transformation is therefore the splitting of O2- with a hydride ion from formate using NADP^+ as a hydride shuttle.
200 μL of 1-propylbenzene (1a above, 1M in DMSO), sodium formate (3 M, 2 mL) and bovine serum albumin (100 mg/mL, 1 mL) were added in potassium phosphate buffer (100 mM, pH 7.6, 2 mL) and the reaction mixture was shaken for 3 min. NADP^+ (10 mM, 1 mL) and BspFDH2 (17 mg/mL, 500 μL) were added and the reaction shaken for 30 minutes at room temperature. After 30 minutes, wild type cytochrome P450-BM3 (WT P450 BM3, 2.4 mg/mL, 300 μL) was added and the reaction shaken at room temperature. The reaction was monitored by GC-MS (Rt˜3.2 minutes). After 15 hr, the reaction mixture was extracted by DCM (3×1 mL) and the combined organic phase was dried and the solvent removed to afford 1-phenylpropan-1-ol (2a above, >99% conversion based on GC chromatogram). […]

[3] = Steady state kinetics for NADP^+ (FDH-catalysed formate oxidation)
Procedure: (§1) BcenFDH1 (Bsp184FDH) and BspFDH2 (Bsp383FDH) catalyzed oxidation of formate to CO2 was monitored by UV/Vis spectrophotometry in a 96-well plate format. A series of eight solutions of formate (0-200 mM) were prepared by successive dilutions of a stock solution of 0.5 M sodium formate in 0.1 M sodium phosphate buffer, pH 7.0. From this series, 170 μL was transferred into wells of the 96-well plate. 10 μL of the FDHs from a stock solution (64.1 μM for BcenFDH1 (Bsp184FDH) and 78.0 μM for BspFDH2 (Bsp383FDH)) were added into each well and equilibrated for 3 min at 30° C. The reaction was initiated by addition of 20 μL of NAD^+ or NADP^+ solution from a freshly prepared stock (10 mM) using an 8-channel pipette. The plate was then immediately placed into the plate reader. The plate was shaken for 5 s to ensure thorough mixing, and then time-based measurements were recorded every 15 s for 10 min. The rate of formate oxidation was calculated using an extinction coefficient of 3.38 mM^−1 (for 200 μL), which was determined using NADH standards. Km and Vmax values were obtained by non-linear regression to the Michaelis-Menten equation (Eq.1 below) using Origin v7 (Microcal Software Inc.).
Similar procedure were used for determination of Michaelis-Menten parameters for NAD^+ and NADP^+. A series of eight solutions of cofactor (0-75 mM) were prepared by successive dilutions of stock solutions. […] of sodium formate solutions (180 mM in well) were transferred into wells of the 96-well plate. 10 μL of the FDHs from a stock solution (64.1 μM for BcenFDH1 (Bsp184FDH) and 78.0 μM for BspFDH2 (Bsp383FDH)) were added into each well and equilibrated for 3 min at 30° C. The reaction was initiated by addition of 20 μL of NAD^+ or NADP^+ solutions using an 8-channel pipette. The plate was then immediately placed into the plate reader. The plate was shaken for 5 s to ensure thorough mixing, and then time-based measurements were recorded every 15 s for 10 min. The rate of formate oxidation was calculated using an extinction coefficient of 3.38 mM^−1 (for 200 μL), which was determined using NADH standards. Km and Vmax values were obtained by non-linear regression to the Michaelis-Menten equation as before.

[4] = Steady state kinetics for formate oxidation
Procedure: as §1

B1: Bsp383FDH: wild type FDH from Burkholderia sp 383, Seq ID No: 1, C-terminal His-tagged (protein, listed as Burkholderia sp.)
chain: MATVLCVLYPDPVDGYPPRYVRDAIPVITHYADGQTAPTPAGPPGFQPGELVGCVSGALGLRGYMEAHGHTLIVTSDKDSPDSEFERRLPEADVVISQPFWPAYLTAERIARAPKLKLALTAGIGSDHVDLDAAARARITVAEVTGSNSISVAEHVVMTTLALVRNYLPSHAIAQQGGWNIADCVSRSYDVEGMHFGTVGAGRIGLAVLRRLKPFGLQLHYTQRHRLDASIEQELGLTYHADAASLASAVDIVNLQIPLYPSTEHLFDAAMIARMKRGAYLINTARAKLVDRDAVVNALTSGHLAGYGGDVWFPQPAPADHPWRTMPFNGMTPHISGTSLSAQARYAAGTLEILQCWFDGKPIRNEYLIVDGGTLAGTGAQSYRLT
modifications: C-terminal His tag
For B1, the reaction complete within [1] was no more than 4 h, the “conversion of cyclohexanone to caprolactone (oxepan-2-one)” value ([1]; NADPH regeneration, GC) was greater than 99% and the reaction complete within ([2]; coupled with cytochrome P450 BM-3) was no more than 2 h. For the same molecule, the “conversion of propylbenzene to 1-phenyl-1-propanol” value ([2]; coupled with cytochrome P450 BM-3, NADPH regeneration from formate, GC) was greater than 99%, the Km ([3]; cofactor NADP^+, 0.18M formate) was 0.7 ± 0.1 mM and the “kcat NADP^+” value ([3]; cofactor NADP^+, 0.18M formate) was 2.77 ± 0.12 s⁻¹. For the same molecule, the “cofactor preference for NADP^+, times greater than those of known FDHs such as CmetFDH” value ([3]; relative to CmetFDH) was 10^6 times, the kcat ([4]; formate oxidation with NADP^+) was 6.1148 ± 0.4473 s⁻¹ and the Km ([4]; formate oxidation with NAD^+) was 50.1 ± 2.69 mM. The kcat ([4]; formate oxidation with NAD^+) was 0.772 ± 0.0158 s⁻¹.
